Data on one substance can be found in article PMC10460364.

One data set deals with Cys42. The experiment in a line: UV-vis. The note with it: 10 °C; poly-buffer: 10 mM sodium acetate, 10 mM sodium phosphate, 10 mM sodium borate, 10 mM sodium citrate, pH 9.4, titrated with 100 mM HCl; Reduced protein (20 µM), referenced to CHP-oxidised protein; folded.
Another data set relates to Cys45. As to the kind of experiment: UV-vis. The note with it: 10 °C; poly-buffer: 10 mM sodium acetate, 10 mM sodium phosphate, 10 mM sodium borate, 10 mM sodium citrate, pH 9.4, titrated with 100 mM HCl; Reduced protein (20 µM), referenced to CHP-oxidised protein; folded.

For “Alkyl hydroperoxide reductase CgAhp (NCgl0877), AhpD-like disulfide oxidoreductase (Corynebacterium glutamicum (strain RES167, derivative of ATCC 13032))”, the values for the pKa entry in the data set with Cys42 and in the data set on Cys45 were “lower than 6” and 8.39, respectively.
